Three molecules from patent publication US20050282743A1, “Molecular interactions in cells” (Arbor Vita Corporation, priority 2001, published 2005) can be followed below.

Changes are numbered by the printed parent chain. “And” between values parts separate entries of the source, which are not always exact repeats. Equal values may be shown once.

For experiment [1], the target named is T1, GST-APXL-1 PDZ domain 1 (Homo sapiens (Human)), Q13796.
T1 chain: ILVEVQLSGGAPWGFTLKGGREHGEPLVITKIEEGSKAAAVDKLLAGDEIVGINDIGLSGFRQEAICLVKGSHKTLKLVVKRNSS
Kind of experiment: G' assay. Note: key of the grades not given here.

Experiment [2] deals with T2, GST-EZRIN Binding Protein 50 PDZ domain 1 (Homo sapiens (Human)), O14745.
T2 chain: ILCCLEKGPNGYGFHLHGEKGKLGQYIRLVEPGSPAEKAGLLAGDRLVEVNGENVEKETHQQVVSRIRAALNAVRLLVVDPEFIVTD
Kind of experiment: G' assay. Note: key of the grades not given here.

Experiment [3] has as its target T3, GST-EZRIN Binding Protein 50 PDZ domain 2 (Homo sapiens (Human)), O14745.
T3 chain: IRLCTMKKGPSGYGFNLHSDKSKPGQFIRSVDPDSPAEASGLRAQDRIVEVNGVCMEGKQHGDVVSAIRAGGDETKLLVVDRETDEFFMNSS
Put plainly: G' assay. Note: key of the grades not given here.

In experiment [4] the target is T4, GST-FLJ 10324 PDZ domain 1 [GST: P08515].
T4 chain: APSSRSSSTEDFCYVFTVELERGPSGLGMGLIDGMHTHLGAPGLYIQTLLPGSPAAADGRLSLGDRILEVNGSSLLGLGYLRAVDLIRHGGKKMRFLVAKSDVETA
Put plainly: G' assay. Note: key of the grades not given here.

The target in experiment [5] is T5, GST-INADL PDZ domain 8 (Homo sapiens (Human)), Q8NI35.
T5 chain: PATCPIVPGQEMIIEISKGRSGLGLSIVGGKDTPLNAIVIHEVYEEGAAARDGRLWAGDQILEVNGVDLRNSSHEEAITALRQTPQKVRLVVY
Put plainly: G' assay. Note: key of the grades not given here.

Experiment [6] addresses T6, GST-KIAA0807(S) PDZ domain 1 (Homo sapiens (Human)), Q6P0Q8.
T6 chain: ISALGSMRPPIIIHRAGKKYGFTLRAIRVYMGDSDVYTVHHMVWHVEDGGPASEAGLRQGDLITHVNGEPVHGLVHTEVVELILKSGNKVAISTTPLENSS
Put plainly: G' assay. Note: key of the grades not given here.

For experiment [7], the target named is T7, GST-KIAA0973 PDZ domain 1 (Homo sapiens (Human)), Q9Y2H9.
T7 chain: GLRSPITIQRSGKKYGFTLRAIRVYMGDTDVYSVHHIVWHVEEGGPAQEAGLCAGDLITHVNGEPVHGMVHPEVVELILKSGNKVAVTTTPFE
Put plainly: G' assay.

For experiment [8], the target named is T8, GST-KIAA1526 PDZ domain 1 (Homo sapiens (Human)), Q9P202.
T8 chain: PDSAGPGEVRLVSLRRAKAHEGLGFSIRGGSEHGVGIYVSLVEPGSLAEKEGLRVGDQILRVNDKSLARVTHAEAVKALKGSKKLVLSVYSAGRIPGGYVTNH
Put plainly: G' assay.

Experiment [9] concerns the target GST-KIAA807 [GST: P08515]. Put plainly: G' assay.
Experiment [10] has as its target T9, GST-MINT1 PDZ domain 2 (Mus musculus (Mouse)), B2RUJ5.
T9 chain: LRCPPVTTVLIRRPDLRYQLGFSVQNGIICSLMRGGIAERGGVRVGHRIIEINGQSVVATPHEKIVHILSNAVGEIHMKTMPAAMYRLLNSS
Put plainly: G' assay.

Experiment [11] deals with T10, GST-MUPP1 PDZ domain 10 (Homo sapiens (Human)), O75970.
T10 chain: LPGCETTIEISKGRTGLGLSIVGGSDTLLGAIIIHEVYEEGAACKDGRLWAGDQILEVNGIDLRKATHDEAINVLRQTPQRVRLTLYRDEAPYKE
Put plainly: G' assay.

Experiment [12] has as its target T11, GST-MUPP1 PDZ domain 13 (Homo sapiens (Human)), O75970.
T11 chain: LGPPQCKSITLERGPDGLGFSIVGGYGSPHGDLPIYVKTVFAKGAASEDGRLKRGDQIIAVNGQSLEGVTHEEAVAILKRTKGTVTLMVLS
Kind of experiment: G' assay.

Experiment [13] concerns the target T12, GST-Outer Membrane PDZ domain 1 (Homo sapiens (Human)), P57105.
T12 chain: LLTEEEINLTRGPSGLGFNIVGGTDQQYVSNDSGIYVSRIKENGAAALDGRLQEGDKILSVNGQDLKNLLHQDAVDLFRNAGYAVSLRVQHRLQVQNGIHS
Put plainly: G' assay.

The target in experiment [14] is T13, GST-PDZK1 PDZ domains 2, 3, 4, Q5T2W1.
T13 chain: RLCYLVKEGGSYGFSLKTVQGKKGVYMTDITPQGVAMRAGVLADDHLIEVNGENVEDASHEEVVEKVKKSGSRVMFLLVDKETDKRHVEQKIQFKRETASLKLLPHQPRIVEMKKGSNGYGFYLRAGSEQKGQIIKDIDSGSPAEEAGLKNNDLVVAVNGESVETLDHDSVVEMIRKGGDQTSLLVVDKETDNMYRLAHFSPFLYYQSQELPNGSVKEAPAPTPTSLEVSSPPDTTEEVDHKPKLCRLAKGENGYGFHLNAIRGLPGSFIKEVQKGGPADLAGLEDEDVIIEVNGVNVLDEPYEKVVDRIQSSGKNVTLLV
Put plainly: G' assay.

Experiment [15] deals with GST-PIST PDZ domain 1 (Mus musculus (Mouse)), Q8BH60. Put plainly: G' assay. Note: key of the grades not given here.
Experiment [16] concerns the target T14, GST-Shank 1 PDZ domain 1 (Homo sapiens (Human)), Q9UPX8.
T14 chain: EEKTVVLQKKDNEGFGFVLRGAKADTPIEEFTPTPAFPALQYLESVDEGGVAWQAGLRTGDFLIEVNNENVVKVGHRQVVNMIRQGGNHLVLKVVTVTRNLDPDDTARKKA
Put plainly: G' assay.

The target in experiment [17] is T15, GST-Shank 3 PDZ domain 1 (human (hypothetical, computer cloned)), Q9BYB0.
T15 chain: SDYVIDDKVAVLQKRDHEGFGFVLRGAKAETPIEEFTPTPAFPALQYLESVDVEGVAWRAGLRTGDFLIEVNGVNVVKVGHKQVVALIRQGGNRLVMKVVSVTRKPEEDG
Put plainly: G' assay.

The target of experiment [18] is T16, GST-Syntrophin gamma 2 PDZ domain 1 (Homo sapiens (Human)), Q9NY99.
T16 chain: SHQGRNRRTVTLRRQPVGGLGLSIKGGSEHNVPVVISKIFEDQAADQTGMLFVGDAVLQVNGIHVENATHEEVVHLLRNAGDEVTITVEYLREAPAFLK
Kind of experiment: G' assay.

Experiment [19] deals with T17, GST-ZO-2 PDZ domain 1 (Homo sapiens (Human)), Q9UDY2.
T17 chain: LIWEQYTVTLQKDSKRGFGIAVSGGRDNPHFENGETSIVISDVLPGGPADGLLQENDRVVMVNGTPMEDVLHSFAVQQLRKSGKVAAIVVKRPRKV
Put plainly: G' assay.

Experiment [20] addresses T18, GST-rat SHANK 3 PDZ domain 1 (rat), Q9JLU4.
T18 chain: T15 chain with V11I, R59K, A86G, G110S
Kind of experiment: G' assay.

The target of experiment [21] is T19, GST-AIPC PDZ domain 1 (Homo sapiens (Human)), O15018.
T19 chain: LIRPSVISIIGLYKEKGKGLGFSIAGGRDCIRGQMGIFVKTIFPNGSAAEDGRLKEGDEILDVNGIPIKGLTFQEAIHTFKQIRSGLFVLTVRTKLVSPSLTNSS
Kind of experiment: G' assay.

The target of experiment [22] is GST-BAI-1 Associated Protein PDZ domain 5 (Homo sapiens (Human)), Q96QZ7. Kind of experiment: G' assay. Note: key of the grades not given here.
The target of experiment [23] is T20, GST-DLG1 PDZ domain 2 (Homo sapiens), Q12959.
T20 chain: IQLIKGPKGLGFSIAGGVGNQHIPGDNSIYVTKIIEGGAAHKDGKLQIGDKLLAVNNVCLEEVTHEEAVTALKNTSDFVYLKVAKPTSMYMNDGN
Put plainly: G' assay.

The target in experiment [24] is GST-DLG1 PDZ domains 1, 2 (Homo sapiens), Q12959. Put plainly: G' assay. Note: key of the grades not given here.
In experiment [25] the target is T21, GST-DLG2 PDZ domain 2 (Homo sapiens (Human)), Q15700.
T21 chain: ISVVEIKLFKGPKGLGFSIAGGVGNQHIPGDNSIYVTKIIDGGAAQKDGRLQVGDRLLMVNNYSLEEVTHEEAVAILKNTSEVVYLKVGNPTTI
Put plainly: G' assay.

Experiment [26] has as its target GST-KIAA1634 PDZ domain 1 (Homo sapiens (Human)), Q5TCQ9. Kind of experiment: G' assay. Note: key of the grades not given here.
Experiment [27] addresses T22, GST-KIAA1634 PDZ domain 2 (Homo sapiens (Human)), Q5TCQ9.
T22 chain: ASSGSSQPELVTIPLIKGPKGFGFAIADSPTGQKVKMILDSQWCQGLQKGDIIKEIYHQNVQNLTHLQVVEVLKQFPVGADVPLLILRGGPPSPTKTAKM
Put plainly: G' assay.

Experiment [28] has as its target GST-KIAA1634 PDZ domain 4 (Homo sapiens (Human)), Q5TCQ9. Put plainly: G' assay. Note: key of the grades not given here.
In experiment [29] the target is T23, GST-NeDLG PDZ domains 1, 2, Q92796.
T23 chain: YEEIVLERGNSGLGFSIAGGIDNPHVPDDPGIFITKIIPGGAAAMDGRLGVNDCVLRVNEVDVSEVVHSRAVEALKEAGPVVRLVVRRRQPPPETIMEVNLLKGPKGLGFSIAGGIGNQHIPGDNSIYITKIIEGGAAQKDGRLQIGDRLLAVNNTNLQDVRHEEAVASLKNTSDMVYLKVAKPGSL
Kind of experiment: G' assay.

Experiment [30] has as its target GST-PSD95 PDZ domains 1, 2, 3 (Homo sapiens), P78352. Put plainly: G' assay. Note: key of the grades not given here.
The target in experiment [31] is T24, GST-PTPL1 PDZ domain 2 (Homo sapiens (Human)), Q12923.
T24 chain: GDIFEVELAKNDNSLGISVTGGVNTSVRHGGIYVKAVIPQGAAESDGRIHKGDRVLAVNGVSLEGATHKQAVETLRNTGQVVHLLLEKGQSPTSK
Put plainly: G' assay.

Experiment [32] has as its target T25, GST-PTPL1 PDZ domain 4 (Homo sapiens (Human)), Q12923.
T25 chain: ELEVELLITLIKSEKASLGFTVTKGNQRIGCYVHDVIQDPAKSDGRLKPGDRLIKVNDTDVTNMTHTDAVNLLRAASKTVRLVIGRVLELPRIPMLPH
Kind of experiment: G' assay.

Experiment [33] concerns the target GST-DLG1 PDZ domains 1, 2 (Homo sapiens), Q12959. Put plainly: G assay titration, PDZ 0.3 ug/ml.
The target of experiment [34] is T26, GST-TIP-1 (Example 3) (human), O14907.
T26 chain: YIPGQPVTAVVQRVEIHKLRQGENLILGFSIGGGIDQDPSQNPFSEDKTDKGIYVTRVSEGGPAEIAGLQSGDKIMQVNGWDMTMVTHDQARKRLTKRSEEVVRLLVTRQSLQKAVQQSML
Kind of experiment: G assay titration, PDZ 0.3 ug/ml.

Experiment [35] addresses GST-PSD95 PDZ domains 1, 2, 3 (Homo sapiens), P78352. Put plainly: G assay competition vs 10 uM biotin-CD95 20-mer; competitor 50 uM.
Experiment [36] shares this target. Kind of experiment: G assay competition vs 20 uM biotin-CD46 20-mer; competitor 50 uM.
For experiment [37] the target is unchanged. Put plainly: G assay competition vs 10 uM biotin-KV1.3 20-mer; competitor 50 uM.
Experiment [38] has the same target. Put plainly: G assay competition vs 20 uM biotin-CLASP-2 20-mer; competitor 50 uM.

Chain of GST-PSD95 PDZ domains 1, 2, 3 (Homo sapiens), P78352 (P78352 62-395): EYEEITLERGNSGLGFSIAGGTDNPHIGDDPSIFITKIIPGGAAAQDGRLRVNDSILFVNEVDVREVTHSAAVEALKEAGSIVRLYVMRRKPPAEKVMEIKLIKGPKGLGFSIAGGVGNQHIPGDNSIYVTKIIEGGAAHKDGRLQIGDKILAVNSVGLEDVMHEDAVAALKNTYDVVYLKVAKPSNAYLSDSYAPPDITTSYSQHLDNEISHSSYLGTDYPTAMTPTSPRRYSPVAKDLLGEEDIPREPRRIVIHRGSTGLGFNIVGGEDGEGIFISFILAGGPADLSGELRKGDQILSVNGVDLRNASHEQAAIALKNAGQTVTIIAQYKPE
Chain of GST-KIAA1634 PDZ domain 4 (Homo sapiens (Human)), Q5TCQ9 (Q5TCQ9 844-945): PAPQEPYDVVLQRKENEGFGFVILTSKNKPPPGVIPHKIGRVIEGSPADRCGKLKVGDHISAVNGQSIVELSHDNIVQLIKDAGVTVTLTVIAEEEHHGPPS
Chain of GST-BAI-1 Associated Protein PDZ domain 5 (Homo sapiens (Human)), Q96QZ7 (Q96QZ7 988-1099): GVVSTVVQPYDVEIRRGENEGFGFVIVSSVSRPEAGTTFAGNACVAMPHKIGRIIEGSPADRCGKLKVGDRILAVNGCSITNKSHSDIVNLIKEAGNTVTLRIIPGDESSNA
Chain of GST-KIAA807 [GST: P08515] (P08515 whole entry, the tested form may be a part): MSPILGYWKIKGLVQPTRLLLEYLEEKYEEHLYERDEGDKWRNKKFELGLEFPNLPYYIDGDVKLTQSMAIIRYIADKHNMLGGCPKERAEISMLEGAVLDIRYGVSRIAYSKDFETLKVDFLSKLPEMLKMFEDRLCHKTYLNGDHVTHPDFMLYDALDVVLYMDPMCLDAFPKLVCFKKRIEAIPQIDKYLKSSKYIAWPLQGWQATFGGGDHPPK
Chain of GST-KIAA1634 PDZ domain 1 (Homo sapiens (Human)), Q5TCQ9 (Q5TCQ9 401-502): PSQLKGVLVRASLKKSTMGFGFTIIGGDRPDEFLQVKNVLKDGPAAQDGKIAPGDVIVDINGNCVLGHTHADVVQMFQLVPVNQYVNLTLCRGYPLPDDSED

In the case of PPATPSPRLALPAHHNATRL (modifications not checked) [Na+/Pi cotransporter 2], the Classification was determined as 1 A450 class in experiment [1]; 5 A450 class in experiment [2]; 2 A450 class in experiment [3]; 1 A450 class in [4]; 1 A450 class in experiment [5]; 5 A450 class in [6]. Besides, the Classification was determined as 2 A450 class in [7]; 1 A450 class in [8]; 5 A450 class in experiment [9]; 1 A450 class in [10]; 1 A450 class in [11]; 1 A450 class in [12]. In addition, the Classification in experiment [13] amounted to 1 A450 class; in [14], 1 A450 class; in experiment [15] it was 1 A450 class; in experiment [16], 5 A450 class; in experiment [17], 5 A450 class; in [18], 1 A450 class. Also, the results for the Classification in [19] and in [20] were 1 A450 class and 4 A450 class, respectively.
By Kd is commonly meant the constant that tells how readily two partners part at equilibrium. Low values mean tighter binding, high ones weaker binding. For the molecule KDITSDSENSNFRNEIQSLV (modifications not checked) [CD95], the Classification came out at 1 A450 class in [21]; 3 A450 class in [22]; 1 A450 class in [23]; 2 A450 class in experiment [24]; 1 A450 class in experiment [25]; 1 A450 class in [4]. For the same molecule, the Classification in experiment [26], in experiment [27], in experiment [28], in [29], in experiment [13] and in experiment [30] was 1 A450 class in each case. The Classification came out at 3 A450 class in experiment [31] and 1 A450 class in experiment [32]. The dissociation constant Kd in experiment [33] was 15 µM and 20 µM; in experiment [34] it was 20 µM and 25 µM. Besides, the maximum OD (450 nm) is 2.6 OD and 2.1 OD in experiment [33]; 2.6 OD and 3.5 OD in experiment [34].
On to RNEIQSLV (modifications not checked) [unlabeled 8 amino acid peptide corresponding to the C-terminus of CD95], for which the % binding of labelled 20-mer stood at 75% in [35], 100% in experiment [36], 87% in [37] and 92% in [38].
